B1: Fab Cb (Fab 73.1) (Fab, V domains shown)
VH: QVQLQQSGAELVRPGTSVKISCKASGYTFSNYWLGWLKQRPGHGLEWIGDIYPGGGYTNYNEKLKGKATLTADTSSSTAYMQLSSLTSEDSAVYFCARPRYGDYWYFDVWGAGTTVTVSS
VL: VHSALMAASPGEKVTITCSVSSSISSSNLHWYQQKSETSPKPWIYGTSNLASGVPVRFSGSGSGTSYSLTISSMEAEDAATYYCQQWSSYPLTFGAGTKLELK
B2: mAb 73.1 (clone Cb), recombinant monoclonal antibody (antibody, V domains shown)
VH: B1 VH
VL: B1 VL
notes: copies: 2 + 2

What was measured:
[1] = target: PR8 HA as used for cryo-EM with Fabs (Influenza A virus A/Puerto Rico/8/1934 …, UniProt P03452); test: cryo-EM structure; details: both partners purified
PR8 HA as used for cryo-EM with Fabs, sequence (P03452 18-338): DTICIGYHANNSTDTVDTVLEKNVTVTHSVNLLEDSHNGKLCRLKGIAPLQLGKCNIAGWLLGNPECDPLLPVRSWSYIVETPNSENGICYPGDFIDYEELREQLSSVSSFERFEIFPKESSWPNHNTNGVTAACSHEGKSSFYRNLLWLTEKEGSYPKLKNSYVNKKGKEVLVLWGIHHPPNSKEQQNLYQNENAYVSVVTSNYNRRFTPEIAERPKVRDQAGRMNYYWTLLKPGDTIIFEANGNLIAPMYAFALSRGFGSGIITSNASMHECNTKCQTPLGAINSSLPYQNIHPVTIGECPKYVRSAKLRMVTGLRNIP

[2] = target: single site-biotinylated PR8 HA (as loaded on streptavidin biosensors for BLI) (influenza virus strain A/Puerto Rico/8/1934 (PR8)) (UniProt P03452); test: BLI; Octet RED96; […]; association 300 s, dissociation 600 s; global fit 1:1
single site-biotinylated PR8 HA (as loaded on streptavidin biosensors for BLI) (influenza virus strain A/Puerto Rico/8/1934 (PR8)), sequence (P03452 18-338): as above

[3] = target: recombinant hemagglutinin (HA) from influenza virus strain A/Puerto Rico/8/1934 (PR8), cysteine-crosslinked, … (Influenza A virus A/Puerto Rico/8/1934 …, UniProt P03452); test: ELISA; details: both partners purified
recombinant hemagglutinin (HA) from influenza virus strain A/Puerto Rico/8/1934 (PR8), cysteine-crosslinked, …, sequence (P03452 18-338): as above

Binder	binding result [1]	Kd [2] [nM]	binding result [3]
B1	binds	30	–
B2	–	–	binds

— publication doi:10.1101/2025.11.06.686519 (bioRxiv, 2025)
